Experimental findings from patent US20220265769A1 (GEISINGER HEALTH, published 2022) are described below.

The target of assay [1] is T1, TBX3 (human, UniProt O15119 1-743, limits assumed).
T1 sequence (looked up): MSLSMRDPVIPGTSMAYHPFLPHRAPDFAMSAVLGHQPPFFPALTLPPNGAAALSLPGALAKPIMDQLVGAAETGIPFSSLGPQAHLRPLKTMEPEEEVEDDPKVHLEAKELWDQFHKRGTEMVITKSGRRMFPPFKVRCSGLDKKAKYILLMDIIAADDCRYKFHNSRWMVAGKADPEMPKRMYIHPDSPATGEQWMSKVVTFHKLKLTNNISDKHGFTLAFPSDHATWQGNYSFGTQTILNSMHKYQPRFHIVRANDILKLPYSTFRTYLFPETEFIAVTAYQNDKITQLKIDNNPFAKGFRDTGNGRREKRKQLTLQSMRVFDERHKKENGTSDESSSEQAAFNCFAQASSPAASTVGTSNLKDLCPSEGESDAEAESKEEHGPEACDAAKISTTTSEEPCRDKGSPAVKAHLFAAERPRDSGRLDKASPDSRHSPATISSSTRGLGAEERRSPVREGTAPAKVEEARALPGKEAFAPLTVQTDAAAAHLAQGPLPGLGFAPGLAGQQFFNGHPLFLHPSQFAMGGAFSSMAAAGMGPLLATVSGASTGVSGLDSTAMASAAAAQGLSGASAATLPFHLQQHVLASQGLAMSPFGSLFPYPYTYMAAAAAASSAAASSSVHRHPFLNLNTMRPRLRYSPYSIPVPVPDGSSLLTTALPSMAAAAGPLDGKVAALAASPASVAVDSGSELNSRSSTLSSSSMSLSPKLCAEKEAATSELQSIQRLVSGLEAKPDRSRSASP
The assay can be described thus: IP and immunoblot, primary human fibroblasts. (In general: Immunoblotting shows a protein as a band on a membrane.)

For assay [2], the target named is T2, estrogen receptor (ERα) (human, UniProt P03372 1-595).
T2 construct: also called ESR1
T2 sequence (looked up): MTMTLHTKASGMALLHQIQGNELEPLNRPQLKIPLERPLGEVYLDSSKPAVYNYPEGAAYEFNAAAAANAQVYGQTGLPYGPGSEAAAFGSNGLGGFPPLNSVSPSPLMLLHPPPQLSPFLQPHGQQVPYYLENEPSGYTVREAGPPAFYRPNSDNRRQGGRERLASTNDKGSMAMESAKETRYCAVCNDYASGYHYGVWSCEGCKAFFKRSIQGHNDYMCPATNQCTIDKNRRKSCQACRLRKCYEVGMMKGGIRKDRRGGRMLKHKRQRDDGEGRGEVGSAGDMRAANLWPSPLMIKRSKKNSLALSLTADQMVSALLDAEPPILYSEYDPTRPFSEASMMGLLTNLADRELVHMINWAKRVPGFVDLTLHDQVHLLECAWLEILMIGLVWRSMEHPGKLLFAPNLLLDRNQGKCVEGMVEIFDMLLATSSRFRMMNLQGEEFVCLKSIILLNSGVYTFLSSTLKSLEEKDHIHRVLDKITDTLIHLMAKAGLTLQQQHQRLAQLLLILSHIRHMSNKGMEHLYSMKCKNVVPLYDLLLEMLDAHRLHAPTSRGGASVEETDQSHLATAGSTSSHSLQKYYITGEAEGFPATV
The assay can be described thus: IP and immunoblot, T47D, MDA-MB231 and PME cells (FIG. 14F).

In assay [3] the target is HCF-1 (human, UniProt P51610 2-2035, limits assumed). The assay is described as above.
Assay [4] concerns the target EZH2 (human, UniProt Q15910 1-746, limits assumed). The assay is described as follows: IP and immunoblot, T47D cells and primary human fibroblasts.

HCF-1, sequence (P51610 2-2035 limits assumed): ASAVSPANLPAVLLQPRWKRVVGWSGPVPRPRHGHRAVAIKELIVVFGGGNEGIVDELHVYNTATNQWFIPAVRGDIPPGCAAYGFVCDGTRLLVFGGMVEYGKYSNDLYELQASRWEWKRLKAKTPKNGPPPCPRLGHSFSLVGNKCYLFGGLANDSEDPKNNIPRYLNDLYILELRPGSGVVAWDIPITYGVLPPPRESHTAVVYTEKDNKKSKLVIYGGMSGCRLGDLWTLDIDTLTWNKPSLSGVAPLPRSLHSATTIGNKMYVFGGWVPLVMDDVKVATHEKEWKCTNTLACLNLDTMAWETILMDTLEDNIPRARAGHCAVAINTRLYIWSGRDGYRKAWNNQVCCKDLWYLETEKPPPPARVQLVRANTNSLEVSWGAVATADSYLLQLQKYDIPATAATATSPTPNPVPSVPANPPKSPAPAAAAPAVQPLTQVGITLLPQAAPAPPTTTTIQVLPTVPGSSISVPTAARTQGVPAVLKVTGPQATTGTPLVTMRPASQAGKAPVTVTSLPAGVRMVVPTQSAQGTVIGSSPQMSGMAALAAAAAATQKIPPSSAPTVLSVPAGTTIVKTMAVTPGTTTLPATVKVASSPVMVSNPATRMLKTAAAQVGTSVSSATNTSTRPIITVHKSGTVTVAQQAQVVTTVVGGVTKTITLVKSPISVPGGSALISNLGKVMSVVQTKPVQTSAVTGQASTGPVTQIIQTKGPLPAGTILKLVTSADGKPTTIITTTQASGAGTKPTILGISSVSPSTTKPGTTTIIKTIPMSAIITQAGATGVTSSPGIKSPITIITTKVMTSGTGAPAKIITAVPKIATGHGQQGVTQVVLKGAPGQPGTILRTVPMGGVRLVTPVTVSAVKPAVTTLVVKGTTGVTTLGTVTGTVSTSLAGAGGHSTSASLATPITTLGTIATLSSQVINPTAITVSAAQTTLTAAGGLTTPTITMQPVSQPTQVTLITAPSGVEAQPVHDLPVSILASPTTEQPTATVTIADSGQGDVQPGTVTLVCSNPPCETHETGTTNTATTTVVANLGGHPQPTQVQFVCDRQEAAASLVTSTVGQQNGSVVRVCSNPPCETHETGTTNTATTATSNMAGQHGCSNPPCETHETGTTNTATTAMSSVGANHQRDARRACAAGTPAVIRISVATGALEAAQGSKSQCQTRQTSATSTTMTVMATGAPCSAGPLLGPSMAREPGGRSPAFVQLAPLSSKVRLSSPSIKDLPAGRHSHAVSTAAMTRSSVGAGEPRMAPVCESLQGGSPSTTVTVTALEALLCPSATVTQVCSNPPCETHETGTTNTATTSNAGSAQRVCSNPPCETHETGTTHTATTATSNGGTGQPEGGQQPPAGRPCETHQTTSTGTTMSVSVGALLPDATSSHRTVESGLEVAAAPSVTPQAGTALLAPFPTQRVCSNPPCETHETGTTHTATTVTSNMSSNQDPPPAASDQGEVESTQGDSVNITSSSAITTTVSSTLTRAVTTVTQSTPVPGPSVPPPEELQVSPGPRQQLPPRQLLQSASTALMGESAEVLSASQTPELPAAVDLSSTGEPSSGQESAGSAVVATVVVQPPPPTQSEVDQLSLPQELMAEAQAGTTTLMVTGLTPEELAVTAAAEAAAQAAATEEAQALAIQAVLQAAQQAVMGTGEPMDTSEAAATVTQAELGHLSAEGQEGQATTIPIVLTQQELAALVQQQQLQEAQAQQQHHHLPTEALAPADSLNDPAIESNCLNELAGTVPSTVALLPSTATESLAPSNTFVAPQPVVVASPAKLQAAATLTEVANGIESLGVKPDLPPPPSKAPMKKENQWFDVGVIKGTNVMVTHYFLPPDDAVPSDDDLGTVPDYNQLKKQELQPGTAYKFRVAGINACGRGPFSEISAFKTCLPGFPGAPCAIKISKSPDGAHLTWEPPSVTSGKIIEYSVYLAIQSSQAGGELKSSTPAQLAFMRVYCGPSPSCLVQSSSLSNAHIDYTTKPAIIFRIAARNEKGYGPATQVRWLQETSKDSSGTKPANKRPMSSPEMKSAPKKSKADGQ
EZH2, sequence (Q15910 whole entry): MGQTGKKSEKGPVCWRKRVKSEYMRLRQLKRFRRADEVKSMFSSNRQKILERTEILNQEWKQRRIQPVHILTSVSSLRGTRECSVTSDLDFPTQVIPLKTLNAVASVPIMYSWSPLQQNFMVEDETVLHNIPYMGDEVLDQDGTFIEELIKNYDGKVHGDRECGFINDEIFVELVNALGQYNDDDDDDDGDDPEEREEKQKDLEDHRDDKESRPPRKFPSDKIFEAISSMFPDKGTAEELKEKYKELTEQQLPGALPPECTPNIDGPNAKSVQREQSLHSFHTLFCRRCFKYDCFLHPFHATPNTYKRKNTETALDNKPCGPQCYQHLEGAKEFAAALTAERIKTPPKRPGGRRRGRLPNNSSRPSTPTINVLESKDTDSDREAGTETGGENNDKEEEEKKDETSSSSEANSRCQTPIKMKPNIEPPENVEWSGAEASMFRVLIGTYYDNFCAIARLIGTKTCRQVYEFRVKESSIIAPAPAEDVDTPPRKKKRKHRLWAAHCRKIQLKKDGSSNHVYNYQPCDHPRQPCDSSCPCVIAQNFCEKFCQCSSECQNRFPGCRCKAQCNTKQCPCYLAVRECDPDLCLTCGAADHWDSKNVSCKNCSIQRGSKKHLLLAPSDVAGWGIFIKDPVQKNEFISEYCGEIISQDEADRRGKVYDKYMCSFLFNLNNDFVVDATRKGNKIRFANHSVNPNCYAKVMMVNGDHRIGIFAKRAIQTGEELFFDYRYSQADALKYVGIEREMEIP

B1: CAPERα (Coactivator of AP1 and Estrogen Receptor) (other, human, UniProt Q14498 2-530, looked up)
chain: ADDIDIEAMLEAPYKKDENKLSSANGHEERSKKRKKSKSRSRSHERKRSKSKERKRSRDRERKKSKSRERKRSRSKERRRSRSRSRDRRFRGRYRSPYSGPKFNSAIRGKIGLPHSIKLSRRRSRSKSPFRKDKSPVREPIDNLTPEERDARTVFCMQLAARIRPRDLEEFFSTVGKVRDVRMISDRNSRRSKGIAYVEFVDVSSVPLAIGLTGQRVLGVPIIVQASQAEKNRAAAMANNLQKGSAGPMRLYVGSLHFNITEDMLRGIFEPFGRIESIQLMMDSETGRSKGYGFITFSDSECAKKALEQLNGFELAGRPMKVGHVTERTDASSASSFLDSDELERTGIDLGTTGRLQLMARLAEGTGLQIPPAAQQALQMSGSLAFGAVAEFSFVIDLQTRLSQQTEASALAAAASVQPLATQCFQLSNMFNPQTEEEVGWDTEIKDDVIEECNKHGGVIHIYVDKNSAQGNVYVKCPSIAAAIAAVNALHGRWFAGKMITAAYVPLPTYHNLFPDSMTATQLLVPSRR
notes: Endogenous protein immunoprecipitated or blotted from Dignam lysates; also called RBM39
Take B1: the binding result in assay [1] is listed as “binds”; in assay [2], “no binding”; in assay [3], “no binding”; in assay [4], “binds”.
